# Reference: the supplement of paper PMC9112550, “Optimization of the antimicrobial peptide Bac7 by deep mutational scanning” (BMC Biology, 2022)
# Test system: Escherichia coli TOP10
# Experiment: shrunken log2 fold change of peptide-encoding DNA abundance (4.5 h post-induction vs induction); higher = less antimicrobial activity (less host growth inhibition)
# Conditions: time post-induction: 4.5 h; library: site-saturation at positions 5, 18, 19, 20
# 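Further: peptides expressed intracellularly from a pBAD plasmid library in pooled LB shake-flask culture, induced with 0.3% L-arabinose, DNA abundance read by NGS, three biological replicates, DESeq2 with apeglm shrinkage.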
row,Sequence,shrunken log2 fold change
1,RRIRWRPPRLPRPRPRPIKFPRP,-0.285
2,RRIRWRPPRLPRPRPRPILFPRP,-0.456
3,RRIRWRPPRLPRPRPRPIMGPRP,0.0656
4,RRIRWRPPRLPRPRPRPIMKPRP,-0.0768
5,RRIRWRPPRLPRPRPRPIMNPRP,-0.473
6,RRIRWRPPRLPRPRPRPIMVPRP,-0.0215
7,RRIRWRPPRLPRPRPRPINNPRP,-0.659
8,RRIRWRPPRLPRPRPRPIPHPRP,0.0496
9,RRIRWRPPRLPRPRPRPIQTPRP,-0.0178
10,RRIRWRPPRLPRPRPRPIQVPRP,-0.0332
11,RRIRWRPPRLPRPRPRPIRMPRP,0.098
12,RRIRWRPPRLPRPRPRPISFPRP,0.00901
13,RRIRWRPPRLPRPRPRPISHPRP,-0.24
14,RRIRWRPPRLPRPRPRPITLPRP,0.107
15,RRIRWRPPRLPRPRPRPIVDPRP,-0.0254
16,RRIRWRPPRLPRPRPRPIWYPRP,-0.149
17,RRIRWRPPRLPRPRPRPIYDPRP,-0.227
18,RRIRWRPPRLPRPRPRPKACPRP,0.105
19,RRIRWRPPRLPRPRPRPKAFPRP,-0.0585
20,RRIRWRPPRLPRPRPRPKAPPRP,0.378
21,RRIRWRPPRLPRPRPRPKCKPRP,0.0552
22,RRIRWRPPRLPRPRPRPKCRPRP,0.294

row,Sequence,shrunken log2 fold change
1,RRIRWRPPRLPRPRPRPKDFPRP,0.0488
2,RRIRWRPPRLPRPRPRPKDRPRP,0.159
3,RRIRWRPPRLPRPRPRPKEQPRP,0.0237
4,RRIRWRPPRLPRPRPRPKFYPRP,-0.24
5,RRIRWRPPRLPRPRPRPKGDPRP,0.0616
6,RRIRWRPPRLPRPRPRPKGFPRP,0.437
7,RRIRWRPPRLPRPRPRPKICPRP,0.357
8,RRIRWRPPRLPRPRPRPKNQPRP,0.123
9,RRIRWRPPRLPRPRPRPKNWPRP,0.188
10,RRIRWRPPRLPRPRPRPKPAPRP,0.605
11,RRIRWRPPRLPRPRPRPKPWPRP,0.515
12,RRIRWRPPRLPRPRPRPKQVPRP,0.285
13,RRIRWRPPRLPRPRPRPKRAPRP,0.797
14,RRIRWRPPRLPRPRPRPKSSPRP,0.000999
15,RRIRWRPPRLPRPRPRPKSTPRP,0.126
16,RRIRWRPPRLPRPRPRPKSYPRP,0.0188
17,RRIRWRPPRLPRPRPRPKVCPRP,-0.0693
18,RRIRWRPPRLPRPRPRPKWDPRP,0.185
19,RRIRWRPPRLPRPRPRPKYTPRP,-0.315
20,RRIRWRPPRLPRPRPRPLACPRP,0.206
21,RRIRWRPPRLPRPRPRPLAIPRP,0.0258
22,RRIRWRPPRLPRPRPRPLALPRP,0.362

row,Sequence,shrunken log2 fold change
1,RRIRWRPPRLPRPRPRPLASPRP,0.26
2,RRIRWRPPRLPRPRPRPLCQPRP,0.0938
3,RRIRWRPPRLPRPRPRPLDCPRP,-0.117
4,RRIRWRPPRLPRPRPRPLEFPRP,0.0696
5,RRIRWRPPRLPRPRPRPLFPPRP,0.0582
6,RRIRWRPPRLPRPRPRPLHHPRP,-0.0749
7,RRIRWRPPRLPRPRPRPLILPRP,-0.604
8,RRIRWRPPRLPRPRPRPLITPRP,0.0192
9,RRIRWRPPRLPRPRPRPLIVPRP,0.0513
10,RRIRWRPPRLPRPRPRPLKFPRP,-0.121
11,RRIRWRPPRLPRPRPRPLKQPRP,0.206
12,RRIRWRPPRLPRPRPRPLLAPRP,1.03
13,RRIRWRPPRLPRPRPRPLMEPRP,0.835
14,RRIRWRPPRLPRPRPRPLNIPRP,-0.211
15,RRIRWRPPRLPRPRPRPLPKPRP,0.12
16,RRIRWRPPRLPRPRPRPLQAPRP,0.721
17,RRIRWRPPRLPRPRPRPLQGPRP,-0.21
18,RRIRWRPPRLPRPRPRPLSKPRP,-0.0363
19,RRIRWRPPRLPRPRPRPLSPPRP,-0.097
20,RRIRWRPPRLPRPRPRPLWWPRP,0.927
21,RRIRWRPPRLPRPRPRPLYCPRP,-0.22
22,RRIRWRPPRLPRPRPRPLYRPRP,-0.552

row,Sequence,shrunken log2 fold change
1,RRIRWRPPRLPRPRPRPLYYPRP,-0.762
2,RRIRWRPPRLPRPRPRPMCYPRP,-0.308
3,RRIRWRPPRLPRPRPRPMDWPRP,0.482
4,RRIRWRPPRLPRPRPRPMDYPRP,-0.314
5,RRIRWRPPRLPRPRPRPMFKPRP,0.0191
6,RRIRWRPPRLPRPRPRPMFPPRP,0.0483
7,RRIRWRPPRLPRPRPRPMFRPRP,-0.129
8,RRIRWRPPRLPRPRPRPMFWPRP,0.324
9,RRIRWRPPRLPRPRPRPMGTPRP,-0.00133
10,RRIRWRPPRLPRPRPRPMICPRP,-0.00725
11,RRIRWRPPRLPRPRPRPMIHPRP,-0.0666
12,RRIRWRPPRLPRPRPRPMPEPRP,-0.236
13,RRIRWRPPRLPRPRPRPMQYPRP,0.0439
14,RRIRWRPPRLPRPRPRPMRMPRP,0.329
15,RRIRWRPPRLPRPRPRPMSKPRP,-0.133
16,RRIRWRPPRLPRPRPRPMVEPRP,0.35
17,RRIRWRPPRLPRPRPRPNAKPRP,0.188
18,RRIRWRPPRLPRPRPRPNAMPRP,0.123
19,RRIRWRPPRLPRPRPRPNCTPRP,0.0251
20,RRIRWRPPRLPRPRPRPNEIPRP,0.0563
21,RRIRWRPPRLPRPRPRPNELPRP,0.073
22,RRIRWRPPRLPRPRPRPNGCPRP,0.0739

row,Sequence,shrunken log2 fold change
1,RRIRWRPPRLPRPRPRPNGQPRP,0.158
2,RRIRWRPPRLPRPRPRPNKMPRP,0.075
3,RRIRWRPPRLPRPRPRPNKYPRP,-0.481
4,RRIRWRPPRLPRPRPRPNLTPRP,-0.222
5,RRIRWRPPRLPRPRPRPNMFPRP,-0.0911
6,RRIRWRPPRLPRPRPRPNPFPRP,0.208
7,RRIRWRPPRLPRPRPRPNPMPRP,-0.176
8,RRIRWRPPRLPRPRPRPNSIPRP,-0.396
9,RRIRWRPPRLPRPRPRPNTGPRP,-0.096
10,RRIRWRPPRLPRPRPRPNVLPRP,-0.0626
11,RRIRWRPPRLPRPRPRPNVTPRP,-0.22
12,RRIRWRPPRLPRPRPRPNWAPRP,-0.0835
13,RRIRWRPPRLPRPRPRPNWHPRP,-0.00322
14,RRIRWRPPRLPRPRPRPNWLPRP,0.0255
15,RRIRWRPPRLPRPRPRPNYQPRP,-0.365
16,RRIRWRPPRLPRPRPRPNYTPRP,-0.279
17,RRIRWRPPRLPRPRPRPPAEPRP,2.93
18,RRIRWRPPRLPRPRPRPPAIPRP,0.178
19,RRIRWRPPRLPRPRPRPPALPRP,0.433
20,RRIRWRPPRLPRPRPRPPCAPRP,0.563
21,RRIRWRPPRLPRPRPRPPDCPRP,-0.259
